One substance from US20140087436 can be followed below.

Substitutions are numbered along the chain they refer to.

What all share (assay): EMSA
(In EMSA bound probe runs differently from free probe, usually more slowly.)

Series [1] addresses T1, CbbR wild type (Ralstonia eutropha) (UniProt P42722).
T1 sequence: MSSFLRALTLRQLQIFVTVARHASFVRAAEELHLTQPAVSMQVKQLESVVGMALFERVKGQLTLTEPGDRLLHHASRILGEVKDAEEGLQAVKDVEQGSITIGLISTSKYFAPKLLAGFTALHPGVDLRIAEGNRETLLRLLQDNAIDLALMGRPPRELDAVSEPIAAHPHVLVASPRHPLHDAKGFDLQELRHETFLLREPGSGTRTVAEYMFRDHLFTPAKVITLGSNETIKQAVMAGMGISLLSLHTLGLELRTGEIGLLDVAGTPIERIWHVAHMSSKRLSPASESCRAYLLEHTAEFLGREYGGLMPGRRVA
Particulars: fold change in affinity with 400 uM PEP vs no metabolite; RuBP 2.3, ATP 3.2, NADPH 1.5, RU5P 0.91, FBP 0.96.

The target in series [2] is T2, CbbR R272Q (Ralstonia eutropha) (UniProt P42722).
T2 sequence: T1 sequence with R272Q
The conditions noted are these: fold change in affinity with 400 uM PEP vs no metabolite; RuBP 0.76, ATP 1.4; printed R272O in table.

Series [3] addresses T3, CbbR R135C R135C (Ralstonia eutropha) (UniProt P42722).
T3 sequence: T1 sequence with R135C
The conditions noted are these: fold change in affinity with 400 uM PEP vs no metabolite; RuBP 0.59, ATP 1.3.

Series [4] deals with T4, CbbR G98R (Ralstonia eutropha) (UniProt P42722).
T4 sequence: T1 sequence with G98R
The conditions noted are these: fold change in affinity with 400 uM PEP vs no metabolite; RuBP 1.2, ATP 0.99.

The target in series [5] is T5, CbbR R154H R154H (Ralstonia eutropha) (UniProt P42722).
T5 sequence: T1 sequence with R154H
Particulars: fold change in affinity with 400 uM PEP vs no metabolite; RuBP 0.68, ATP 1.2.

As for cbb promoter probe, 246 bp chromosomal, the binding signal in series [1] was 3.8 fold; in series [2], 0.85 fold; in series [3] it was 0.97 fold; in series [4] it was 2.7 fold; in series [5], 1.3 fold.
